Experiment [1] concerns the target T1, human FAP on cells (human, UniProt Q12884 1-760).
T1 sequence: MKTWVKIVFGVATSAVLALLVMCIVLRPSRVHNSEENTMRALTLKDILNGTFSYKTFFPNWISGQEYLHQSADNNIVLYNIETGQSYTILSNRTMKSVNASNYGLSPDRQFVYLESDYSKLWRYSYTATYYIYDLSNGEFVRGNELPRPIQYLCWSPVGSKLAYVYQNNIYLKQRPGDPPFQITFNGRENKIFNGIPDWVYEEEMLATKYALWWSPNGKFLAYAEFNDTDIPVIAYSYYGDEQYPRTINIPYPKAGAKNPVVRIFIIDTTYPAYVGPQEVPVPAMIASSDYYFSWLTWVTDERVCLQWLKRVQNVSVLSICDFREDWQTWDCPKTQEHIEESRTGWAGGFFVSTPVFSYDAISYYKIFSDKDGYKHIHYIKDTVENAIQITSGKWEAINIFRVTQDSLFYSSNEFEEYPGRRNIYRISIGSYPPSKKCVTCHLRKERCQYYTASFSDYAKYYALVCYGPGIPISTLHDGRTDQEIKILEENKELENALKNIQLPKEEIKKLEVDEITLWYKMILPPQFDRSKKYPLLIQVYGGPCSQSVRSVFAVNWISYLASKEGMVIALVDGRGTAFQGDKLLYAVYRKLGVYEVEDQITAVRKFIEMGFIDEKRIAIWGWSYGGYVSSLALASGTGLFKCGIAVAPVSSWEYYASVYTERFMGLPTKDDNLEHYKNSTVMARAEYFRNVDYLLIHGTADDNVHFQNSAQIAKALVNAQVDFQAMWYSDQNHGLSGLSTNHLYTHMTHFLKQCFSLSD
Description: cell-based or functional assay.

Experiment [2] addresses T2, soluble FAP (human, UniProt Q12884 26-760, limits assumed).
T2 sequence: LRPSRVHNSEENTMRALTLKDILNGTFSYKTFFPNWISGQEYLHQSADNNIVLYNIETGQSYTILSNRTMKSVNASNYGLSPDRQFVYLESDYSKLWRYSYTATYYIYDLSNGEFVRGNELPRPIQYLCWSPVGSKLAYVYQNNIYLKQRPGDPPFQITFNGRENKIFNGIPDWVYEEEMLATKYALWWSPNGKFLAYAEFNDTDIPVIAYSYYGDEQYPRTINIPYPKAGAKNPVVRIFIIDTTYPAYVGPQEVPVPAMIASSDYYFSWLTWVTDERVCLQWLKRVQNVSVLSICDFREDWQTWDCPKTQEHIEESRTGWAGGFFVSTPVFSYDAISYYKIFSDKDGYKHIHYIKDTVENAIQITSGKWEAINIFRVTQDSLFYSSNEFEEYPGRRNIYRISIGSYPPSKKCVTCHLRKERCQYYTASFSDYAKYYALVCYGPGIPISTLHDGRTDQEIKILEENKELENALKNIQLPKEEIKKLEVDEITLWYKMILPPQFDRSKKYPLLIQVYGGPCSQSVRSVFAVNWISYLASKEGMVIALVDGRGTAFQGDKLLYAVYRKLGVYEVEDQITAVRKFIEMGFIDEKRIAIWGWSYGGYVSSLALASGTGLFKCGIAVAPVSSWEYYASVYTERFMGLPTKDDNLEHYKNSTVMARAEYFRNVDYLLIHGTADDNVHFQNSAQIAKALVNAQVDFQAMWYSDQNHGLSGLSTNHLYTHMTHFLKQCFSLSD
As to the kind of experiment: cell-based or functional assay.

Experiment [3] deals with T2, soluble FAP. As to the kind of experiment: cell-based or functional assay. This is another data set of the same source.
Experiment [4] has as its target T3, human FAP protein (human, UniProt Q12884 26-760).
T3 sequence: T2 sequence
Description: SPR. The method, then: (§1) CD40.9H3×FAP.LP62 and an analog of RO7300490 (see SEQ ID NOs: 39-42) binding to human and cynomolgus (cyno) CD40 and FAP was evaluated by surface plasmon resonance (SPR) using human and cyno CD40 and FAP proteins. […] The rates of association and dissociation of CD40.9H3×FAP.LP62 and the analog of RO7300490 to human CD40 and FAP are summarized in Table 2.
(Surface plasmon resonance follows binding to a sensor surface in real time, without labels.)

Experiment [5] has as its target T4, human CD40 protein (human, UniProt P25942 21-193).
T4 construct: Protein used in SPR
As to the kind of experiment: SPR. As to the method: as §1

Experiment [6] addresses T5, FcγRI (CD64) (UniProt P12314 16-288, limits assumed).
T5 construct: also called FcγR1 (CD64); FcγR1
Description: SPR, Biacore S200, antibody captured on Protein A chip, FcγR as analyte. As to the method: Binding of CD40.9H3×FAP.LP62 and the analog of RO7300490 to various Fc gamma receptors (FcγR1 (CD64), FcγRIIIA (CD16a), FcγRIIIB (CD16b), FcγRIIA (CD32a), FcγRIIB (CD32b)) was determined in an analyte/capture assay in vitro. Briefly, an SPR assay was performed using a Biacore S200 with a Biacore Series S Protein A chip (Cytiva). All antibodies were prepared at 4.0 μg/ml in 1×HBS-EP+ running buffer (Cytiva) and captured onto flow cells 2, 3, and 4 through a 60 second contact time at 10 μl/min. An analyte series of the FcγRs (BMS In-House Produced) were prepared at 10,000 nM in 1×HBS-EP+ with eight, three-fold dilutions. Kinetic measurements were conducted with a 120 second association followed by a 120 second dissociation at 30 μl/min. Surface regeneration was preformed by 60 second contact time of 50 mM Glycine pH 1.5 solution (Cytiva) at 30 μl/min. Data was processed in Biacore Insight Evaluation Version 5 (Cytiva). Sensorgrams were double referenced and globally fit to a 1:1 Langmuir model were applicable. Where 1:1 model was not sufficient to describe the interaction (fast-on and fast-off rates), steady state equilibrium fitting was used to determine the equilibrium constant.

The values that follow come from patent publication US20250376536A1 (Bristol-Myers Squibb, published 2025).

T4 sequence (P25942 21-193 limits assumed): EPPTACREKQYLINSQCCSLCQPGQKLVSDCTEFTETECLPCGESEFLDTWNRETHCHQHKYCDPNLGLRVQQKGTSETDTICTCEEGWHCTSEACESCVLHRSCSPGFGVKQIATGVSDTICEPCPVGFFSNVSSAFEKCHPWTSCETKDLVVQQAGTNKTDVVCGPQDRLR
T5 sequence (P12314 16-288 limits assumed): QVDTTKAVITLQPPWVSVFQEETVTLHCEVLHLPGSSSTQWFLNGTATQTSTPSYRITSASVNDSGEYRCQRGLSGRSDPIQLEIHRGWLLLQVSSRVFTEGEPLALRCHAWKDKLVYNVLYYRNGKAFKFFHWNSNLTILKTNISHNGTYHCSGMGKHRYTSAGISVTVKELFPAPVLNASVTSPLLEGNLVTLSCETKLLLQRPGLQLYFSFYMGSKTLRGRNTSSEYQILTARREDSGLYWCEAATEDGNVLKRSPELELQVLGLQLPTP

B1: analog of RO7300490 (bispecific antibody, human IgG1, kappa, L234A L235A)
heavy 1: not shown
heavy 2: QVQLVQSGAEVKKPGASVKVSCKASGYSFTGYYIHWVRQAPGQSLEWMGRVIPNAGGTSYNQKFKGRVTLTVDKSISTAYMELSRLRSDDTAVYYCAREGIYWWGQGTTVTVSSASTKGPSVFPLAPSSKSTSGGTAALGCLVEDYFPEPVTVSWNSGALTSGVHTFPAVLQSSGLYSLSSVVTVPSSSLGTQTYICNVNHKPSNTKVDEKVEPKSCDKTHTCPPCPAPEAAGGPSVFLFPPKPKDTLMISRTPEVTCVVVDVSHEDPEVKFNWYVDGVEVHNAKTKPREEQYNSTYRVVSVLTVLHQDWLNGKEYKCKVSNKALGAPIEKTISKAKGQPREPQVCTLPPSRDELTKNQVSLSCAVKGFYPSDIAVEWESNGQPENNYKTTPPVLDSDGSFFLVSKLTVDKSRWQQGNVFSCSVMHEALHNHYTQKSLSLSPG
light 1: DIVMTQTPLSLSVTPGQPASISCRSSQSLVHSNGNTFLHWYLQKPGQSPQLLIYTVSNRFSGVPDRFSGSGSGTDFTLKISRVEAEDVGVYFCSQTTHVPWTFGGGTKVEIKRTVAAPSVFIFPPSDRKLKSGTASVVCLLNNFYPREAKVQWKVDNALQSGNSQESVTEQDSKDSTYSLSSTLTLSKADYEKHKVYACEVTHQGLSSPVTKSFNRGEC
light 2: QVQLVQSGAEVKKPGASVKVSCKASGYTLTDYNMDWVRQAPGQGLEWIGDIYPNTGGTIYNQKFKGRVTMTIDTSTSTVYMELSSLRSEDTAVYYCTRFRGIHYAMDYWGQGTTVTVSSASVAAPSVFIFPPSDEQLKSGTASVVCLLNNFYPREAKVQWKVDNALQSGNSQESVTEQDSKDSTYSLSSTLTLSKADYEKHKVYACEVTHQGLSSPVTKSFNRGEC
notes: Human IgG1 Fc with L234A, L235A, P329G; also called RO7300490 analog
For the molecule B1, the “IL12p40 release, human DC + HFF1 co-culture, EC50, soluble FAP 0 ng/mL” value in experiment [1] is 0.09 nM. In experiment [2], the “IL12p40 release, human DC + HFF1 co-culture, EC50, soluble FAP 120 ng/mL” value stood at 1.14 nM and the “IL12p40 release, human DC + HFF1 co-culture, EC50, soluble FAP 480 ng/mL” value stood at 516 nM. Besides, in experiment [3], the “fold reduction in potency of IL12p40 secretion with 120 ng/mL soluble FAP” value is 14.2 fold and the “fold reduction in potency of IL12p40 secretion with 480 ng/mL soluble FAP” value was 70.9 fold. For the same molecule, in experiment [4], binding was characterised by a dissociation constant (Kd) of 0.265 nM; the koff (as a rule, the first-order rate constant of dissociation) turned out to be 4.83e-05 s⁻¹; the association rate constant (kon) (in general, the rate constant with which the complex forms) stood at 182000 M⁻¹ s⁻¹. In experiment [5], the Kd (commonly the equilibrium constant for the complex coming apart) amounted to 4.9 nM, the koff was 0.00555 s⁻¹ and the kon was found to be 1.13e+06 M⁻¹ s⁻¹. Moreover, in experiment [6], binding was put at a Kd of 2550 nM.
